In the supplement of paper PMC5998384:

Key:
HeLa Kyoto [1] = experiment: solubility in G1/S (NP-40 vs SDS abundance) (log2 ratio); higher = more soluble; settings: cell cycle stage: G1/S
HeLa Kyoto [2] = experiment: melting temperature (median over replicates), in situ; higher = more thermally stable
HeLa Kyoto [3] = experiment: solubility change mitosis vs G1/S (difference of NP-40 vs SDS log2 ratios) (log2 ratio difference); higher = more soluble in mitosis
HeLa Kyoto [4] = experiment: thermal stability score vs G1/S (z-score of summed log2 fold changes over temperatures); higher = more thermally stable than in G1/S
[5] = cell cycle stage: early G1 (4.5 h after nocodazole release)
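For melting temperature (median over replicates), in situ in this document: HeLa Kyoto cells synchronized by double thymidine or nocodazole block, proteins quantified by TMT10plex mass spectrometry, three independent biological replicates.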
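For solubility change mitosis vs G1/S (difference of NP-40 vs SDS log2 ratios) in this document: synchronized HeLa Kyoto cells (double thymidine block for G1/S, nocodazole release for mitosis), protein amounts in NP-40 versus SDS lysates quantified by mass spectrometry, three biological replicates.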
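For solubility in G1/S (NP-40 vs SDS abundance) in this document: HeLa Kyoto cells arrested at G1/S by double thymidine block, proteins quantified by TMT10plex mass spectrometry in mild NP-40 versus SDS extracts, three biological replicates.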
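For thermal stability score vs G1/S (z-score of summed log2 fold changes over temperatures) in this document: synchronized HeLa Kyoto cells, proteins quantified by TMT10plex mass spectrometry, three biological replicates, mitosis taken 0.5 h after nocodazole release, G1/S directly after double thymidine block.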

Sequence | solubility in G1/S (log2) (HeLa Kyoto [1]) | melting temperature (HeLa Kyoto [2]; cell cycle stage: G1/S) [°C] | melting temperature (HeLa Kyoto [2]; cell cycle stage: mitosis) [°C] | solubility change mitosis (log2) (HeLa Kyoto [3]) | thermal stability score (HeLa Kyoto [4]; [5]) | thermal stability score (HeLa Kyoto [4]; cell cycle stage: mitosis)
MEESGYESVLCVKPDVHVYRIPPRATNRGYRAAEWQLDQPSWSGRLRITAKGQMAYIKLEDRTSGELFAQAPVDQFPGTAVESVTDSSRYFVIRIEDGNGRRAFIGIGFGDRGDAFDFNVALQDHFKWVKQQCEFAKQAQNPDQGPKLDLGFKEGQTIKLNIANMKKKEGAAGNPRVRPASTGGLSLLPPPPGGKTSTLIPPPGEQLAVGGSLVQPAVAPSSGGAPVPWPQPNPATADIWGDFTKSTGSTSSQTQPGTGWVQF [NECAP2] | 0.173 | 52.6 | 52 | -0.251 | -0.264 | -1.02
MKNQDKKNGAAKQSNPKSSPGQPEAGPEGAQERPSQAAPAVEAEGPGSSQAPRKPEGAQARTAQSGALRDVSEELSRQLEDILSTYCVDNNQGGPGEDGAQGEPAEPEDAEKSRTYVARNGEPEPTPVVNGEKEPSKGDPNTEEIRQSDEVGDRDHRRPQEKKKAKGLGKEITLLMQTLNTLSTPEEKLAALCKKYAELLEEHRNSQKQMKLLQKKQSQLVQEKDHLRGEHSKAVLARSKLESLCRELQRHNRSLKEEGVQRAREEEEKRKEVTSHFQVTLNDIQLQMEQHNERNSKLRQENMELAERLKKLIEQYELREEHIDKVFKHKDLQQQLVDAKLQQAQEMLKEAEERHQREKDFLLKEAVESQRMCELMKQQETHLKQQLALYTEKFEEFQNTLSKSSEVFTTFKQEMEKMTKKIKKLEKETTMYRSRWESSNKALLEMAEEKTVRDKELEGLQVKIQRLEKLCRALQTERNDLNKRVQDLSAGGQGSLTDSGPERRPEGPGAQAPSSPRVTEAPCYPGAPSTEASGQTGPQEPTSARA [TXLNA] | 0.802 | 52.5 | 52.6 | 0.248 | 0.411 | -0.854
MVKLTAELIEQAAQYTNAVRDRELDLRGYKIPVIENLGATLDQFDAIDFSDNEIRKLDGFPLLRRLKTLLVNNNRICRIGEGLDQALPCLTELILTNNSLVELGDLDPLASLKSLTYLSILRNPVTNKKHYRLYVIYKVPQVRVLDFQKVKLKERQEAEKMFKGKRGAQLAKDIARRSKTFNPGAGLPTDKKKGGPSPGDVEAIKNAIANASTLAEVERLKGLLQSGQIPGRERRSGPTDDGEEEMEEDTVTNGS [SNRPA1] | 0.281 | 54 | 54.2 | 0.21 | 0.145 | -1.77
MAASEVAGVVANAPSPPESSSLCASKSDEGLPDGLSTKDSAQKQKNSPLLSVSSQTITKENNRNVHLEHSEQNPGSSAGDTSAAHQVVLGENLIATALCLSGSGSQSDLKDVASTAGEEGDTSLRESLHPVTRSLKAGCHTKQLASRNCSEEKSPQTSILKEGNRDTSLDFRPVVSPANGVEGVRVDQDDDQDSSSLKLSQNIAVQTDFKTADSEVNTDQDIEKNLDKMMTERTLLKERYQEVLDKQRQVENQLQVQLKQLQQRREEEMKNHQEILKAIQDVTIKREETKKKIEKEKKEFLQKEQDLKAEIEKLCEKGRREVWEMELDRLKNQDGEINRNIMEETERAWKAEILSLESRKELLVLKLEEAEKEAELHLTYLKSTPPTLETVRSKQEWETRLNGVRIMKKNVRDQFNSHIQLVRNGAKLSSLPQIPTPTLPPPPSETDFMLQVFQPSPSLAPRMPFSIGQVTMPMVMPSADPRSLSFPILNPALSQPSQPSSPLPGSHGRNSPGLGSLVSPHGPHMPPAASIPPPPGLGGVKASAETPRPQPVDKLEKILEKLLTRFPQCNKAQMTNILQQIKTARTTMAGLTMEELIQLVAARLAEHERVAASTQPLGRIRALFPAPLAQISTPMFLPSAQVSYPGRSSHAPATCKLCLMCQKLVQPSELHPMACTHVLHKECIKFWAQTNTNDTCPFCPTLK [RNF214] | 0.486 | 49.8 | 51.5 | -0.0773 | -0.221 | -0.95
MKKAEMGRFSISPDEDSSSYSSNSDFNYSYPTKQAALKSHYADVDPENQNFLLESNLGKKKYETEFHPGTTSFGMSVFNLSNAIVGSGILGLSYAMANTGIALFIILLTFVSIFSLYSVHLLLKTANEGGSLLYEQLGYKAFGLVGKLAASGSITMQNIGAMSSYLFIVKYELPLVIQALTNIEDKTGLWYLNGNYLVLLVSLVVILPLSLFRNLGYLGYTSGLSLLCMVFFLIVVICKKFQVPCPVEAALIINETINTTLTQPTALVPALSHNVTENDSCRPHYFIFNSQTVYAVPILIFSFVCHPAVLPIYEELKDRSRRRMMNVSKISFFAMFLMYLLAALFGYLTFYEHVESELLHTYSSILGTDILLLIVRLAVLMAVTLTVPVVIFPIRSSVTHLLCASKDFSWWRHSLITVSILAFTNLLVIFVPTIRDIFGFIGASAASMLIFILPSAFYIKLVKKEPMKSVQKIGALFFLLSGVLVMTGSMALIVLDWVHNAPGGGH [SLC38A2] | 0.157 | 57.5 | 57.6 | -0.301 | -0.691 | -0.748
MFSWVSKDARRKKEPELFQTVAEGLRQLYAQKLLPLEEHYRFHEFHSPALEDADFDNKPMVLLVGQYSTGKTTFIRHLIEQDFPGMRIGPEPTTDSFIAVMHGPTEGVVPGNALVVDPRRPFRKLNAFGNAFLNRFMCAQLPNPVLDSISIIDTPGILSGEKQRISRGYDFAAVLEWFAERVDRIILLFDAHKLDISDEFSEVIKALKNHEDKIRVVLNKADQIETQQLMRVYGALMWSLGKIINTPEVVRVYIGSFWSHPLLIPDNRKLFEAEEQDLFKDIQSLPRNAALRKLNDLIKRARLAKVHAYIISSLKKEMPNVFGKESKKKELVNNLGEIYQKIEREHQISPGDFPSLRKMQELLQTQDFSKFQALKPKLLDTVDDMLANDIARLMVMVRQEESLMPSQVVKGGAFDGTMNGPFGHGYGEGAGEGIDDVEWVVGKDKPTYDEIFYTLSPVNGKITGANAKKEMVKSKLPNTVLGKIWKLADVDKDGLLDDEEFALANHLIKVKLEGHELPADLPPHLVPPSKRRHE [EHD1] | 0.171 | 50.6 | 50.5 | -0.0648 | 2.25 | 2.22
MAFLKLRDQPSLVQAIFNGDPDEVRALIFKKEDVNFQDNEKRTPLHAAAYLGDAEIIELLILSGARVNAKDSKWLTPLHRAVASCSEEAVQVLLKHSADVNARDKNWQTPLHIAAANKAVKCAEALVPLLSNVNVSDRAGRTALHHAAFSGHGEMVKLLLSRGANINAFDKKDRRAIHWAAYMGHIEVVKLLVSHGAEVTCKDKKSYTPLHAAASSGMISVVKYLLDLGVDMNEPNAYGNTPLHVACYNGQDVVVNELIDCGAIVNQKNEKGFTPLHFAAASTHGALCLELLVGNGADVNMKSKDGKTPLHMTALHGRFSRSQTIIQSGAVIDCEDKNGNTPLHIAARYGHELLINTLITSGADTAKRGIHGMFPLHLAALSGFSDCCRKLLSSGFDIDTPDDFGRTCLHAAAAGGNLECLNLLLNTGADFNKKDKFGRSPLHYAAANCNYQCLFALVGSGASVNDLDERGCTPLHYAATSDTDGKCLEYLLRNDANPGIRDKQGYNAVHYSAAYGHRLCLQLIASETPLDVLMETSGTDMLSDSDNRATISPLHLAAYHGHHQALEVLVQSLLDLDVRNSSGRTPLDLAAFKGHVECVDVLINQGASILVKDYILKRTPIHAAATNGHSECLRLLIGNAEPQNAVDIQDGNGQTPLMLSVLNGHTDCVYSLLNKGANVDAKDKWGRTALHRGAVTGHEECVDALLQHGAKCLLRDSRGRTPIHLSAACGHIGVLGALLQSAASMDANPATADNHGYTALHWACYNGHETCVELLLEQEVFQKTEGNAFSPLHCAVINDNEGAAEMLIDTLGASIVNATDSKGRTPLHAAAFTDHVECLQLLLSHNAQVNSVDSTGKTPLMMAAENGQTNTVEMLVSSASAELTLQDNSKNTALHLACSKGHETSALLILEKITDRNLINATNAALQTPLHVAARNGLTMVVQELLGKGASVLAVDENGYTPALACAPNKDVADCLALILATMMPVSSSSPLSSLTFNAINRYTNTSKTVSFEALPIMRNEPSSYCSFNNIGGEQEYLYTDVDELNDSDSETY [ANKRD28] | -0.288 | 51.2 | 50.8 | -0.133 | -0.536 | -1.19
MAERAALEELVKLQGERVRGLKQQKASAELIEEEVAKLLKLKAQLGPDESKQKFVLKTPKGTRDYSPRQMAVREKVFDVIIRCFKRHGAEVIDTPVFELKETLMGKYGEDSKLIYDLKDQGGELLSLRYDLTVPFARYLAMNKLTNIKRYHIAKVYRRDNPAMTRGRYREFYQCDFDIAGNFDPMIPDAECLKIMCEILSSLQIGDFLVKVNDRRILDGMFAICGVSDSKFRTICSSVDKLDKVSWEEVKNEMVGEKGLAPEVADRIGDYVQQHGGVSLVEQLLQDPKLSQNKQALEGLGDLKLLFEYLTLFGIDDKISFDLSLARGLDYYTGVIYEAVLLQTPAQAGEEPLGVGSVAAGGRYDGLVGMFDPKGRKVPCVGLSIGVERIFSIVEQRLEALEEKIRTTETQVLVASAQKKLLEERLKLVSELWDAGIKAELLYKKNPKLLNQLQYCEEAGIPLVAIIGEQELKDGVIKLRSVTSREEVDVRREDLVEEIKRRTGQPLCIC [HARS] | 0.354 | 53.5 | 53 | -0.113 | 5.06 | 4.5
